B1: TRIM9 (parent)
chain: PRNSCITCPQCHRSLILDDRGLRG

Variants of: B1
Assay: protein stability index of a GFP-peptide fusion (GPS, HEK-293T) (PSI 1-6); higher = more stable
Settings: c terminus: a fixed tail appended
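Note: lentivirally expressed fusions sorted by FACS into six bins by GFP to DsRed ratio, PSI derived from sequencing read proportions per bin multiplied by bin number.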

Protein stability index of substitutions, site by site:
Q10: F 3; S 2.46; C 1.95; L 1.89; K 2.25; M 2.04; E 1.53; H 2.62; N 2.47; A 2.37; V 2.29; T 2.52; R 2.36; G 4.38; D 2.49; Y 3.29; P 2.02; I 2.05
L22: K 2.46; G 2.3; C 2.32; P 3.51; N 2.34; W 2.54; F 1.91; E 2.21; M 2.69; D 3.81; T 3.33; Q 3.69; H 2.49; V 2.55; R 2.84; Y 2.54; S 2.62; I 2.36
G21: Y 2.24; L 2.09; K 2.52; Q 2.01; A 1.93; C 2.52; M 2.8; D 2.07; E 2.93; N 2.17; W 2.06; S 1.71; H 2.11; I 1.47; F 1.88; T 1.57; V 1.78; P 2.27
I6: S 2.02; P 2.6; G 1.93; H 2.46; N 2.29; Q 2.16; T 1.89; Y 2.72; M 2.08; L 2.26
D18: I 1.53; C 2.05; W 1.68; F 1.92; T 2.24; H 2.03; Q 1.96; N 1.7; S 2.3; G 2.36; M 2.57; Y 2.36; E 1.71; P 1.49; A 2.31; K 2.24; V 1.85; L 1.53
H12: T 1.38; F 2.2; A 2.53; V 3.37; D 2.28; Y 2.46; L 3.13; M 2.78; N 2.16; W 2.07; I 1.85; Q 1.96; C 1.6; P 2.52; S 2.04; G 2.68; K 2.69
C11: M 1.97; Y 2.11; W 3.38; V 2.2; H 2.51; P 2.47; L 1.83; Q 2.16; R 2.71; D 2.92; K 2.62; T 2.78; G 3.01; A 2.29; I 2.98; E 2.86; S 2.43; F 2.38
R23: E 3.21; L 2.48; S 2.1; K 2.2; C 2.6; D 2.96; F 2.75; H 2.05; I 2.08; M 1.67; N 2.56; P 2.42; T 3; Y 1.63; A 2.5; W 1.25; G 2.48; V 1.93; Q 2.41
L15: W 2.48; K 2.12; S 2.19; V 2.24; N 1.98; Y 2.79; R 2.13; H 2.45; G 1.64; Q 2.79; T 2.59; A 1.92; P 2.77; E 2.19; F 3.08; C 1.95; D 2.51; M 2.61; I 1.68
R20: N 2.05; A 1.98; G 2.19; D 2.53; K 1.98; C 2.39; T 3.07; E 2.7; L 1.93; Y 2.35; H 1.62; W 1.44; F 1.69; Q 2.04; V 1.82; P 2.6; M 2.21; I 1.85
T7: D 1.81; W 2; M 2.36; G 2.4; P 1.72; K 2.25; A 2.42; L 1.99; I 2.16; N 2.04; H 3.11; S 2.48; F 1.84; Q 2.38; E 1.99; C 2.05; R 1.98; V 3.1; Y 2.33
D19: G 1.58; N 1.93; F 1.72; M 2.24; P 1.81; W 1.52; V 1.4; I 1.75; Q 2.77; H 1.9; L 1.41; Y 1.7; T 2.42; A 2.46; S 2.11; K 2.05; R 1.84; C 2.6; E 1.82
S14: P 2.52; W 1.68; C 2.92; D 2.4; Y 2.66; N 1.9; E 2.6; L 2.11; V 3.13; K 2.7; M 2.27; G 1.26; Q 2; F 1.91; I 2.93; H 2.25; T 2.71; A 2.18; R 2.4
P9: S 2.16; F 1.54; Y 3.11; A 2.5; D 2.05; W 3.5; G 1.72; M 1.45; K 2.18; T 1.83; L 2.12; E 1; R 2.58; V 2.67; H 1.51; N 1.54; C 2.45
L17: V 2.19; C 2.51; I 2.05; Q 2.25; D 2.48; N 1.79; E 2.2; A 1.72; T 2.08; R 2.48; W 1.56; P 2.4; M 2.21; K 2.1; F 2.44; G 2.08; H 2.74; S 2.15; Y 2.11
R13: G 2.37; D 3.33; F 2.09; N 2.49; A 3.91; S 2.9; K 1.95; H 2.59; Q 2.63; L 1.57; C 4.16; Y 2.53; I 1.95; E 2.61; M 1.77; W 2.42; P 1.97; T 3.47; V 2.2
G24: E 2.6; I 2.03; A 2.13; H 3.02; K 1.71; C 2.35; N 1.86; F 2.34; M 2.17; L 1.81; D 2.08; P 2.03
I16: S 2.97; G 1.76; D 2.64; C 2.32; M 2.58; L 2.38; A 1.94; R 2.13; H 1.97; V 2.28; F 1.69; Q 2.69; K 2.68; N 2.49; Y 2.58; E 3.16; P 2.42; T 1.99
C8: S 3.15; G 2.34; Q 2.16; V 2.47; F 1.57; W 2.89; E 3.18; N 2.6; D 2.24; L 2.35; I 2.38; T 3.33; R 2.47; P 3.14; A 2.84; K 2.4; M 2.62; H 2.29; Y 2.54

Reference: the supplement of paper PMC10567573
